Assay results from PMC2917274, “Structure of Staphylococcus aureus adenylosuccinate lyase (PurB) and assessment of its potential as a target for structure-based inhibitor discovery” (Acta Crystallographica Section D: Biological Crystallography, 2010).

T1: SaPurB (Staphylococcus aureus, UniProt Q7A0G9)
T1 construct: gene purB; full length (domains described over residues 1-431); N-terminal His tag removed by TEV protease (modified pET15b); expressed in E. coli BL21(DE3) pLysS; dimer in gel filtration, homotetramer in crystal, each active site from three subunits
T1 sequence (Q7A0G9 1-431): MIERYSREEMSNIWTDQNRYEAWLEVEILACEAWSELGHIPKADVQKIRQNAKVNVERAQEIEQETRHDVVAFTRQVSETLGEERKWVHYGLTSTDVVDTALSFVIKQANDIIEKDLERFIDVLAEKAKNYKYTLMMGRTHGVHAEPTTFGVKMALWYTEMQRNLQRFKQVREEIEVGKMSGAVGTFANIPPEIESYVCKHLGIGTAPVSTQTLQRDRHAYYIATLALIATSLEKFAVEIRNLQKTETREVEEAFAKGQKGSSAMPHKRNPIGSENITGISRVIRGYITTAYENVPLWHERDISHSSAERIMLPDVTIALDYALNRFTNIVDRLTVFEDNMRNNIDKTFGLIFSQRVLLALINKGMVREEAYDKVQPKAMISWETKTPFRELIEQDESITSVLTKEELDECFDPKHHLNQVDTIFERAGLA

B1: Staphylococcus aureus adenylosuccinate lyase (PurB) (enzyme, UniProt Q2FFI7 1-431, looked up)
chain: T1 sequence (Q7A0G9 1-431)
notes: domains I-III span residues 1-431; theoretical subunit mass 49.6 kDa; Vector pET15b changed to carry a TEV site in place of the thrombin site; Dimer by gel filtration, tetramer in the crystal; also called SaPurB

Columns and labels:
SaPurB = target: T1, SaPurB; test: X-ray crystal structure, […] Å; assay type: binding; conditions: co-crystallized with 25 mM AMP, pH 6.2, 293 K; active site; oxalate tentatively modelled nearby
[1] = target: the molecule itself; test: crystal structure; 2.5 A, space group I222, one chain per asymmetric unit, tetramer built by crystallographic twofold axes; with AMP and oxalate; crystals at 293 K from 45% PEG 200, 0.2 M NaCl, 0.1 M sodium phosphate pH 6.2
[2] = target: the molecule itself; test: SEC; Superdex 200 26/60, 50 mM Tris-HCl, 250 mM NaCl pH 7.5, column calibrated with molecular-weight standards; final stage of purification

Molecule | X-ray crystal structure, 2.5 Å (SaPurB) | stoichiometry N [1] | stoichiometry N [2]
Nc1ncnc2c1ncn2[C@@H]1O[C@H](COP(=O)(O)O)[C@@H](O)[C@H]1O [AMP] | The structure of AMP in the active site of SaPurB | – | –
B1 | – | 4 | 2
